The source of these data is article PMC7339825 (Nature structural & molecular biology, 2020).

First the molecules themselves.
B1: binary TSG101-VPS28 ESCRT-I head subcomplex, wild type (complex)
chain 1: QSENNDIDEVIIPTAPLYKQILNLYAEENAIEDTIFYLGEALRRGVIDLDVFLKHVRLLSRKQFQLRALMQKARKTAGLSD
chain 2: MFHGIPATPGIGAPGNKPELYEEVKLYKNAREREKYDNMAELFAVVKTMQALEKAYIKDCVSPSEYTAACSRLLVQYKAAFRQVQGSEISSIDEFCRKFRLDCPLAMERIKEDRPITIKDDK
B2: GST-TSG101 UEV domain (residues 2-145) (domain or fragment)
chain: AVSESQLKKMVSKYKYRDLTVRETVNVITLYKDLKPVLDSYVFNDGSSRELMNLTGTIPVPYRGNTYNIPICLWLLDTYPYNPPICFVKPTSSMTIKTGKHVDANGKIYLPYLHEWKHPQSDLLGLIQVMIVVFGDEPPVFSRP

Series [1] deals with the molecule itself. Kind of series: SEC. In general terms: Size exclusion chromatography separates by hydrodynamic size, large species first.
The target in series [2] is B1. Kind of series: pull-down.

B1: in series [1], the binding result is listed as “binds”.
For B2, in series [2], the binding result was “binds”.
